# From US20230190652A1, “COMPOSITION FOR THE TREATMENT OF COVID-19 AND TREATMENT METHOD” (priority 2020, published 2023)
# B1: lactoferrin (protein, UniProt P24627 20-708, looked up)
# Lactotransferrin: APRKNVRWCTISQPEWFKCRRWQWRMKKLGAPSITCVRRAFALECIRAIAEKKADAVTLDGGMVFEAGRDPYKLRPVAAEIYGTKESPQTHYYAVAVVKKGSNFQLDQLQGRKSCHTGLGRSAGWIIPMGILRPYLSWTESLEPLQGAVAKFFSASCVPCIDRQAYPNLCQLCKGEGENQCACSSREPYFGYSGAFKCLQDGAGDVAFVKETTVFENLPEKADRDQYELLCLNNSRAPVDAFKECHLAQVPSHAVVARSVDGKEDLIWKLLSKAQEKFGKNKSRSFQLFGSPPGQRDLLFKDSALGFLRIPSKVDSALYLGSRYLTTLKNLRETAEEVKARYTRVVWCAVGPEEQKKCQQWSQQSGQNVTCATASTTDDCIVLVLKGEADALNLDGGYIYTAGKCGLVPVLAENRKSSKHSSLDCVLRPTEGYLAVAVVKKANEGLTWNSLKDKKSCHTAVDRTAGWNIPMGLIVNQTGSCAFDEFFSQSCAPGADPKSRLCALCAGDDQGLDKCVPNSKEKYYGYTGAFRCLAEDVGDVAFVKNDTVWENTNGESTADWAKNLNREDFRLLCLDGTRKPVTEAQSCHLAVAPNHAVVSRSDRAAHVKQVLLHQQALFGKNGKNCPDKFCLFKSETKNLLFNDNTECLAKLGGRPTYEEYLGTEYVTAIANLKKCSTSPLLEACAFLTR
# notes: bovine LF used
# Tested on: COVID-19
# Test: Intubated hospitalized critically ill COVID-19 patients
# Type: in vivo, human
# Conditions: patients in a critical condition with cytokine storm
molecule,measurement,value
B1,"IL-6, TNF alpha, ferritin and DD2 parameters",normalizing or decreasing
